Key:
Format in all cases: physicochemical
[1] = molecular target: T1, single component neutral pork zinc insulin (Sus scrofa, UniProt P01315); experiment: Controlled shaking of zinc insulin solutions in test tubes, optical density at 600 nm; details: for Optical Density ± 1 × SE: zinc insulin 50 U/ml, OD at 600 nm
T1 construct: single component, neutral, pork, zinc-insulin (U.500 regular Iletin II., Eli Lilly & Company); purchased Eli Lilly & Company U.500 regular Iletin II
Procedure: In vitro testing of single component neutral pork zinc insulin was undertaken with a number of added agents. Solutions at about neutral pH and at acid pH were tested. In addition, some testing was also undertaken with Na insulin.
The tests were conducted using plastic tybes (5 ml test tubes, Sarstedt, sealed by plastic caps covered with paraffin) each containing 2 ml of the insulin solutions noted below. The tubes were continuously agitated in a metabolic shaking incubator (Dubnoff E.C.A. Co.) at 60 to 80 r.p.m. and 37° C. for periods up to sixteen days.
The zinc insulin solutions were prepared by appropriate dilutions of highly concentrated (500 U/ml) single component, neutral, pork, zinc-insulin (U.500 regular Iletin II., Eli Lilly & Company). The unbuffered diluting fluid contained glycerin, 16 mg/ml, and phenol, 2 mg/ml of distilled water (Eli Lilly & Company). […] Final insulin concentration in all solutions was 50 U/ml (2 mg/ml).
Insulin solutions with amino acid added were prepared by addition of the dry amino acids (Sigma Company) to the neutral zinc or sodium insulin solutions. Final concentration of the amino acid additives was 7 mg per ml of insulin solution. pH was adjusted, when necessary, to 7.5 for neutral insulin mixtures and to 3.3-3.5 for acid insulin mixtures.
Several non-amino carboxylic acids, i.e., lactic acid, acetic acid, and citric acid, were added under the same conditions of concentration and pH as described for the amino acids.
The various insulin solutions, both as made up without additives and with additives, were shaken as noted above for up to sixteen days, at which time the solutions were examined with an optical densitometer at a wave length 600 nm. The optical density (OD) of each solution was an indication of the amount of aggregation present after the shaking period. The higher the optical density, the greater the aggregation in that solution.

pork sodium-insulin = molecular target: T2, pork sodium-insulin (Sus scrofa, UniProt P01315); experiment: Controlled shaking of Na insulin solutions in test tubes, optical density at 600 nm; details: Na insulin 50 U/ml, pH 3.5, shaken at 37° C., OD at 600 nm
T2 construct: pork sodium-insulin crystals (U.1000 neutral sodium insulin special pork obtained from Eli Lilly & Company); purchased Eli Lilly & Company U.1000 neutral sodium insulin special pork
T2 sequence (P01315 25-54 limits assumed): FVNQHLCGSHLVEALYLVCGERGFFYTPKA
T2 sequence (P01315 88-108 limits assumed): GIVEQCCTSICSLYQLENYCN
Procedure: In vitro testing of single component neutral pork zinc insulin was undertaken with a number of added agents. Solutions at about neutral pH and at acid pH were tested. In addition, some testing was also undertaken with Na insulin. The tests were conducted using plastic tybes (5 ml test tubes, Sarstedt, sealed by plastic caps covered with paraffin) each containing 2 ml of the insulin solutions noted below. The tubes were continuously agitated in a metabolic shaking incubator (Dubnoff E.C.A. Co.) at 60 to 80 r.p.m. and 37° C. for periods up to sixteen days. The sodium insulin solutions were made by dissolving pork sodium-insulin crystals (U.1000 neutral sodium insulin special pork obtained from Eli Lilly & Company) in the same diluting fluid as utilized with the zinc insulin. The solutions were adjusted to neutral or acid pH as indicated above. Final insulin concentration in all solutions was 2 mg/ml (50 U/ml). Insulin solutions with amino acid added were prepared by addition of the dry amino acids (Sigma Company) to the neutral zinc or sodium insulin solutions. Final concentration of the amino acid additives was 7 mg per ml of insulin solution. pH was adjusted, when necessary, to 7.5 for neutral insulin mixtures and to 3.3-3.5 for acid insulin mixtures. The various insulin solutions, both as made up without additives and with additives, were shaken as noted above for up to sixteen days, at which time the solutions were examined with an optical densitometer at a wave length 600 nm. The optical density (OD) of each solution was an indication of the amount of aggregation present after the shaking period. The higher the optical density, the greater the aggregation in that solution.

[2] = Controlled shaking of insulin solutions in 2-week minipumps equipped with small diameter catheters; details: shaken 8 days at 37°
Procedure: Minipumps (Alzet Osmotic Minipump No. 2002, Alza Corporation, Palo Alto, Calif.) that release their contents ([…]) at a constant rate ([…]) over a minimum of 14 days were filled with insulin or amino acid-insulin solutions. The minipumps were weighed before and after filling to determine the initial inner fluid volume. A 5 cm vinyl catheter (Iv. soft medical polyvinyl tubing; i.D.=0.023 inch; Bolab Inc. Co., Derry, N.H.) was attached to the tubes' exterior beyond their flanges.
Acid and neutral insulin solutions were prepared with and without glutamic or aspartic acids as described in Example I except insulin concentrations were 120 U/ml (approximately 5 mg/ml). Glutamic and aspartic acids were added to a concentration of 7 mg/ml. The final pH's of the amino acid insulin solutions were 3.3-3.5.
Pumps with attached catheters were placed in a 5 ml plastic vial containing a cotton wad and sufficient saline to immerse and activate the pump. The catheter passed through a 0.5 ml air space at the top of the fluid in the tube, the terminal end being submerged in the saline. The tubes were sealed with a plastic cap covered with parafilm. They were shaken at 37° in a metabolic shaking incubator (Dubnoff E.C.A.) at 80-100 r.p.m. for periods up to 8 days. Pumps were removed from the tubes on the 8th day after shaking; catheters were examined for precipitates by eye and residual contents were removed and centrifuged in microtubes to evaluate the precipitate.

[3] = pH 7.4, shaken 16 days at 37° C., higher OD = greater aggregation

T1 sequence (P01315 25-54 limits assumed): as the sequence (P01315 25-54 limits assumed) above

Compound	Protective effect against insulin aggregation (in words) ([1]; agent added to insulin solution at acid pH 3.3-3.5, listed as Glutamic acid)	Protective effect against insulin aggregation (in words) ([1]; agent added to insulin solution at acid pH 3.3-3.5, listed as glutamic acid)	Protective effect against insulin aggregation (in words) ([1]; agent added to insulin solution at neutral pH (about pH 7, pH 7.4), listed as Glutamic acid)	Protective effect against insulin aggregation (in words) ([1]; agent added to insulin solution at neutral pH (about pH 7, pH 7.4), listed as glutamic acid)	Optical Density ± 1 × SE ([1]; pH 3.3-3.5, shaken 16 days at 37° C.)	Optical Density ± 1 × SE [1, 3]	Optical Density ± 1 × SE (pork sodium-insulin)	Time at which aggregates appeared ([1]; acidified (pH 2.9-3.3), unbuffered)	Aggregation of acidified unbuffered insulin solution (in words) ([1]; pH 2.9-3.3, unbuffered, through day 16)	Optical Density ± 1 × SE ([1]; pH 2.9-3.3, shaken 16 days at 37° C.)	Number of Pumps with Aggregates in Catheter ([2]; pH 3.3, 120 U/ml, of 6 pumps)	Number of Pumps with Precipitates ([2]; pH 3.3, 120 U/ml, of 6 pumps)	Number of Pumps with Aggregates in Catheter ([2]; pH 7.4, 120 U/ml, of 3 pumps)	Number of Pumps with Precipitates ([2]; pH 7.4, 120 U/ml, of 3 pumps)
N[C@@H](CCC(=O)O)C(=O)O [Glutamic Acid]	prevented the development of any appreciable aggregation throughout the entire experiment	particularly effective in protecting insulin solutions from aggregation	do not offer any effective protection	the protective effect of the agents are no longer apparent	0.123 ± 0.02	0.717 ± 0.266	0.13 ± 0.03							
Neutral Single Component Zinc Insulin: single component, neutral, pork, zinc-insulin (U.500 regular Iletin II, Eli Lilly & Company), diluted, no agent added						0.603 ± 0.08		by the fourth day	the aggregation was as great through day 16 as unacidified solutions	0.181 ± 0.03	4	0	3	3

Source: patent US4371523A, “Reducing the aggregation of insulin in solution” (The Regents of the University of California, priority 1980, dated 1983)
